Measured values: the supplement of paper PMC10126150
± gives the standard deviation of the averaged measurements.
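Note: ATP exposure 15 min at 22 °C before imaging.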

The sequences below were run on ATP (assay: switch fluorescence ratio, 500 uM ATP over buffer (Cy3 cluster intensity, sum of 5 cycles each) (fold (ratio)); higher = stronger signal-on switching upon ATP binding; sequences stand for … in TCGTCGGCAGCGTCAGATGTGTATAAGAGACAGTTTTTTTTTTTTTTTTTTTTTTTTT…TC). Settings: aptamer strand: ATP DNA aptamer (quencher-CACCTGGGGGAGTATTGCGGAGGAAGG + anchor), 100 nM annealed; ATP concentration: 500 uM.
Procedure, shortened: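 Per cluster, summed Cy3 intensity from the target cycles was divided by that from the buffer cycles to give the fluorescence ratio, then averaged per switch-domain sequence. Clusters outside 100-1000 RFU were excluded. The Cy3-labelled switching-strand clusters, on a modified Illumina MiSeq flow-cell, were annealed to 100 nM quencher-labelled ATP aptamer and imaged in selection buffer, then after 15 min with 500 uM ATP at 22 °C, for five cycles with NaOH stripping and re-annealing between them.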
TCAGGGGTCG showed a switch fluorescence ratio of 1.05 ± 0.056.
GTGGGCTGTT was tested, and the switch fluorescence ratio was 1.01 ± 0.06.
CCTGGGGTCG was tested, and the switch fluorescence ratio was 1.05 ± 0.05.
Work on AGCGGTCTAT yielded a switch fluorescence ratio of 1.021 ± 0.005.
TGTTTGGTGG was tested, and the switch fluorescence ratio was 0.968 ± 0.026.
Work on ATATTGGGTT yielded a switch fluorescence ratio of 0.9708 ± 0.0074.
With TTTGTAAGGC the switch fluorescence ratio was 1.08 ± 0.13.
ATGCGGGTGC showed a switch fluorescence ratio of 1.04 ± 0.039.
In the case of GGGGATACGG, the switch fluorescence ratio is reported as 1.026 ± 0.0047.
Work on GCGTTCTCGC yielded a switch fluorescence ratio of 0.968 ± 0.016.
In the case of AATGCGGGGT, the switch fluorescence ratio is reported as 1.13 ± 0.16.
GTGGACAAGG gave a switch fluorescence ratio of 0.978 ± 0.031.
With TACCCAGATT the switch fluorescence ratio was 1.66 ± 0.98.
Work on CGATGTAGTT yielded a switch fluorescence ratio of 0.995 ± 0.014.
For AAGTGTTGGC, the switch fluorescence ratio was 1.014 ± 0.01.
TAGCTAGTAT showed a switch fluorescence ratio of 1.63 ± 0.95.
GGGGTAAACA was tested, and the switch fluorescence ratio was 0.99 ± 0.038.
TTAGGAGGGA gave a switch fluorescence ratio of 0.9949 ± 0.0064.
With TTGCGTGGGG the switch fluorescence ratio was 1.005 ± 0.0065.
TCGTTATTGT gave a switch fluorescence ratio of 1.01 ± 0.021.
For GGGGAGAAGG, the switch fluorescence ratio was 0.981 ± 0.031.
TGATGATTTC showed a switch fluorescence ratio of 1.009 ± 0.009.
With GGGTGTTCGG the switch fluorescence ratio was 0.979 ± 0.017.
In the case of TCTAAGTCCA, the switch fluorescence ratio is reported as 0.989 ± 0.068.
Work on CCTCGGGGGG yielded a switch fluorescence ratio of 1.06 ± 0.1.
For TCGGTCTAAC, the switch fluorescence ratio was 1 ± 0.015.
GTTCGGGATT was tested, and the switch fluorescence ratio was 0.981 ± 0.023.
With GGAAGGGTTT the switch fluorescence ratio was 1.03 ± 0.061.
Work on AGTTTCCTAG yielded a switch fluorescence ratio of 0.971 ± 0.022.
Work on TATTTGCTTT yielded a switch fluorescence ratio of 1.02 ± 0.015.
TAGTTCGGTT gave a switch fluorescence ratio of 1.01 ± 0.016.
For ATTCTGACCG, the switch fluorescence ratio was 1.09 ± 0.068.
GGGGGGGACG gave a switch fluorescence ratio of 0.962 ± 0.055.
For CGGTTCGGCG, the switch fluorescence ratio was 0.987 ± 0.0099.
In the case of ATCAAGTGAG, the switch fluorescence ratio is reported as 0.998 ± 0.015.
ACGGTTGTAC was tested, and the switch fluorescence ratio was 1.1813 ± 0.001.
TGTGGGTCCG was tested, and the switch fluorescence ratio was 1 ± 0.036.
Sequence CGAAAAATGG has a switch fluorescence ratio of 1.04 ± 0.046.
Sequence TATCAGTAGT has a switch fluorescence ratio of 1.016 ± 0.0028.
TTTGATGGTA was tested, and the switch fluorescence ratio was 0.943 ± 0.026.
For TGGGTGGGTA, the switch fluorescence ratio was 1.03 ± 0.026.
TAGAGGGGGG showed a switch fluorescence ratio of 0.985 ± 0.038.
ATTGGGTCTA was tested, and the switch fluorescence ratio was 0.978 ± 0.021.
Sequence TGAAATTAGT has a switch fluorescence ratio of 1.01 ± 0.013.
For CTGACTTCAT, the switch fluorescence ratio was 1.0521 ± 0.00045.
For CAAGGTAGGG, the switch fluorescence ratio was 0.968 ± 0.019.
With GGCGCCGCGG the switch fluorescence ratio was 0.9937 ± 0.0092.
With GTTACTGGTG the switch fluorescence ratio was 1.05 ± 0.027.
ACACATCGGA was tested, and the switch fluorescence ratio was 1.005 ± 0.0057.
GCTGCGAGGT showed a switch fluorescence ratio of 1.012 ± 0.0056.
Work on TGTCCGGGCT yielded a switch fluorescence ratio of 0.999 ± 0.028.
GGGTTTATGC gave a switch fluorescence ratio of 0.9921 ± 0.0067.
With TTTTAGTTGT the switch fluorescence ratio was 0.994 ± 0.032.
Work on CGTTTGTGAG yielded a switch fluorescence ratio of 1 ± 0.0092.
For CATTAAGTGT, the switch fluorescence ratio was 0.9713 ± 0.0034.
In the case of GGGGAAGAGT, the switch fluorescence ratio is reported as 0.996 ± 0.052.
GAGATCGGGG was tested, and the switch fluorescence ratio was 1 ± 0.03.
TTTGGACAAG showed a switch fluorescence ratio of 1 ± 0.061.
Work on AGTCGTGTCT yielded a switch fluorescence ratio of 0.967 ± 0.012.
Work on CAGGGTCGGG yielded a switch fluorescence ratio of 0.966 ± 0.035.
CATGCTTTCC was tested, and the switch fluorescence ratio was 1.17 ± 0.26.
AAAGACCGTG was tested, and the switch fluorescence ratio was 1.02 ± 0.033.
GGTAAAGGTA was tested, and the switch fluorescence ratio was 1 ± 0.029.
TCAGAATGCG showed a switch fluorescence ratio of 0.991 ± 0.045.
In the case of GCCATTAGCA, the switch fluorescence ratio is reported as 1.022 ± 0.005.
Work on GGTCTTGAGG yielded a switch fluorescence ratio of 1.01 ± 0.028.
With CGCTGGCCGG the switch fluorescence ratio was 0.972 ± 0.037.
In the case of TTGTCATTTT, the switch fluorescence ratio is reported as 1.04 ± 0.067.
TCAAAGTTGG was tested, and the switch fluorescence ratio was 1.01 ± 0.022.
GCACGATGGT gave a switch fluorescence ratio of 0.972 ± 0.01.
Work on TCGTTGTTTT yielded a switch fluorescence ratio of 1.0216 ± 0.00093.
Work on GTCAACGCCG yielded a switch fluorescence ratio of 1.02 ± 0.018.
AGTTTTTATT was tested, and the switch fluorescence ratio was 1.03 ± 0.015.
In the case of ATAATTCTAT, the switch fluorescence ratio is reported as 0.9819 ± 0.008.
Work on GAGGATAGGG yielded a switch fluorescence ratio of 0.9768 ± 0.0037.
TAGACAGGGG was tested, and the switch fluorescence ratio was 1 ± 0.037.
In the case of CGGTTTATGA, the switch fluorescence ratio is reported as 0.968 ± 0.016.
AGATATCATG showed a switch fluorescence ratio of 0.973 ± 0.037.
ATATGATTGA gave a switch fluorescence ratio of 0.9686 ± 0.0044.
Sequence TAAAATCCTG has a switch fluorescence ratio of 1.05 ± 0.039.
Sequence CTTCATAGAT has a switch fluorescence ratio of 1.02 ± 0.016.
TGGGGGGATC gave a switch fluorescence ratio of 1.009 ± 0.0082.
In the case of CTTAGTCGGC, the switch fluorescence ratio is reported as 0.967 ± 0.015.
AACTGGGGGG showed a switch fluorescence ratio of 1 ± 0.045.
In the case of TTAATCGATG, the switch fluorescence ratio is reported as 1 ± 0.019.
GAGAGGTTCG gave a switch fluorescence ratio of 0.962 ± 0.012.
TACTTGTTTT was tested, and the switch fluorescence ratio was 1 ± 0.033.
Sequence GGTTCCGGTA has a switch fluorescence ratio of 0.9998 ± 0.00095.
Work on TTAATTACGG yielded a switch fluorescence ratio of 1.01 ± 0.017.
With TCCAGGGTAA the switch fluorescence ratio was 1.0425 ± 0.00073.
Work on CAGGTATTAC yielded a switch fluorescence ratio of 1.11 ± 0.026.
TATCAGATTA showed a switch fluorescence ratio of 0.998 ± 0.033.
Sequence TGCTTGTGTT has a switch fluorescence ratio of 0.9912 ± 0.0064.
With TCTGGAGAGG the switch fluorescence ratio was 1.01 ± 0.034.
Work on TTTTTGCTGA yielded a switch fluorescence ratio of 1.01 ± 0.032.
For CAGTCTAAGA, the switch fluorescence ratio was 1.03 ± 0.056.
Work on GCGTATATTA yielded a switch fluorescence ratio of 0.998 ± 0.036.
Sequence TAGGGGGGGT has a switch fluorescence ratio of 1 ± 0.031.
Sequence GTGTTCTTGC has a switch fluorescence ratio of 0.9845 ± 0.0043.
TAACGTGGGA was tested, and the switch fluorescence ratio was 0.996 ± 0.058.
For TGCGATGAGG, the switch fluorescence ratio was 1.01 ± 0.046.
In the case of TTACTGAACT, the switch fluorescence ratio is reported as 1.19 ± 0.025.
TTGGGGGCCC showed a switch fluorescence ratio of 1.01 ± 0.033.
Work on CTTTTGGGAC yielded a switch fluorescence ratio of 0.987 ± 0.025.
TGCAGTTTTT showed a switch fluorescence ratio of 0.999 ± 0.029.
Work on TCAGTTTAGC yielded a switch fluorescence ratio of 1.01 ± 0.016.
Work on TTATCGAGGA yielded a switch fluorescence ratio of 0.973 ± 0.021.
In the case of CAGGGGCAAT, the switch fluorescence ratio is reported as 2.7 ± 0.12.
With CGGGGACGGC the switch fluorescence ratio was 0.98 ± 0.025.
For GCCCTGAGCA, the switch fluorescence ratio was 1.01 ± 0.026.
GGCAATATGT gave a switch fluorescence ratio of 1.24 ± 0.077.
Sequence GAATTAAATT has a switch fluorescence ratio of 1.01 ± 0.018.
In the case of TATGAGAGCC, the switch fluorescence ratio is reported as 1.02 ± 0.026.
For GAACTAAGCT, the switch fluorescence ratio was 1.01 ± 0.028.
ATGAGTTTTG was tested, and the switch fluorescence ratio was 0.984 ± 0.029.
Sequence GGGACAGGTA has a switch fluorescence ratio of 1.02 ± 0.022.
TATTTAGGAC gave a switch fluorescence ratio of 0.99 ± 0.028.
With TTTGTGTCTT the switch fluorescence ratio was 0.967 ± 0.024.
Work on GTGGATTTGA yielded a switch fluorescence ratio of 1.01 ± 0.013.
Work on CCGCGGGGGG yielded a switch fluorescence ratio of 1.08 ± 0.088.
In the case of TATTATTGGT, the switch fluorescence ratio is reported as 0.992 ± 0.045.
Sequence CTGGGTCACA has a switch fluorescence ratio of 1.02 ± 0.011.
For TCCGATTATG, the switch fluorescence ratio was 1.0175 ± 0.00092.
In the case of TTGGGGGTTC, the switch fluorescence ratio is reported as 1.01 ± 0.05.
For AACGTCTCGA, the switch fluorescence ratio was 1.01 ± 0.025.
Work on TTCGTGGGCT yielded a switch fluorescence ratio of 1.02 ± 0.045.
In the case of TTAGGCGGGA, the switch fluorescence ratio is reported as 0.995 ± 0.046.
Work on GCATCCGAAG yielded a switch fluorescence ratio of 1.274 ± 0.0035.
AAAGATTATT showed a switch fluorescence ratio of 1 ± 0.021.
With TTTAGTTGAC the switch fluorescence ratio was 0.9956 ± 0.0092.
GGAGTCTAGC was tested, and the switch fluorescence ratio was 0.9825 ± 0.0036.
AATTGTTATG showed a switch fluorescence ratio of 0.999 ± 0.039.
ACTCTTGTAT was tested, and the switch fluorescence ratio was 1.045 ± 0.0058.
Work on CAGAGGAGTG yielded a switch fluorescence ratio of 0.9738 ± 0.0038.
AATTATTTTG was tested, and the switch fluorescence ratio was 1 ± 0.045.
GGGTGTGCGC was tested, and the switch fluorescence ratio was 1.0134 ± 5.8e-05.
Sequence TTTTTAACAG has a switch fluorescence ratio of 0.997 ± 0.021.
In the case of GGGTTCTTAC, the switch fluorescence ratio is reported as 0.999 ± 0.011.
For CGTTTGTGGG, the switch fluorescence ratio was 0.984 ± 0.034.
Work on TTTGTTATGC yielded a switch fluorescence ratio of 1.03 ± 0.032.
TTTTCTGTCC was tested, and the switch fluorescence ratio was 1.03 ± 0.012.
Work on ATCCATACAA yielded a switch fluorescence ratio of 1.03 ± 0.035.
In the case of GATTTTTTTG, the switch fluorescence ratio is reported as 0.985 ± 0.037.
In the case of TTCAGAAACA, the switch fluorescence ratio is reported as 1.04 ± 0.037.
For TTTTCAGGAG, the switch fluorescence ratio was 1.03 ± 0.016.
With GCGTGCGGGA the switch fluorescence ratio was 1.02 ± 0.017.
In the case of AACTTGGGTG, the switch fluorescence ratio is reported as 1.02 ± 0.035.
With CATGACATTT the switch fluorescence ratio was 1.06 ± 0.028.
Work on TGAGATGCGG yielded a switch fluorescence ratio of 1.03 ± 0.038.
GGGGTAAAAT was tested, and the switch fluorescence ratio was 1.01 ± 0.035.
For TTTTATTGCG, the switch fluorescence ratio was 0.995 ± 0.011.
Work on AACCAGAAAT yielded a switch fluorescence ratio of 0.992 ± 0.01.
Work on AGTCGTTTTT yielded a switch fluorescence ratio of 0.98 ± 0.026.
In the case of AACAGTTTTT, the switch fluorescence ratio is reported as 0.989 ± 0.044.
Work on TTTTGTTACT yielded a switch fluorescence ratio of 1.01 ± 0.026.
GAGGGCGTCA gave a switch fluorescence ratio of 0.995 ± 0.027.
For GCAAATGGTT, the switch fluorescence ratio was 1.01 ± 0.053.
